{"source": "patent US7052704B2", "about": "“Methods and compositions for lipidization of hydrophilic molecules” (University of Southern California, priority 1995, dated 2006)", "key": {"[1]": {"settings": "cited from earlier work"}, "[2]": {"tested_on": "Human colon carcinoma cells (Caco-2)", "assay": "Uptake of 125I-BBI conjugates into Caco-2 cell monolayers"}, "C3H 10T1/2 cells": {"tested_on": "C3H 10T1/2 cells", "assay": "Plating efficiency in conjunction with transformation assay", "format": "cell-based", "settings": "200 cells/dish, 10 days; conjugates 1.0 μg/ml after MCA 1 μg/ml 24 hr", "description": "The plating efficiency (PE) of the cells was also studied in conjunction with each of the transformation assays. To determine the PE of the cells in the different treatment groups, cells (200 cells/dish) were seeded into three 60-mm petri dishes per experiment group and treated in the identical manner as the transformation assay cells. The cells in these assays were terminated at 10 days, fixed with 100% methanol, and stained with giemsa; the colonies of 50 cells or more visible under a microscope were then counted. The plating efficiency is defined as the (number of colonies/number of cells seeded)*100."}, "[3]": {"assay": "iv-biodistribution of 125I-BBI conjugates"}, "[4]": {"assay": "Skin absorption of 125I-labeled BBI or BBIssPal", "settings": "5 μl of 0.5 mg/ml on 0.38 cm^2, 30 minutes, 23° C."}, "Caco-2 monolayers": {"tested_on": "Caco-2 monolayers", "assay": "Transport of single- and multiple-conjugates across Caco-2 monolayers in transwells", "format": "cell-based, Human", "description": "Confluent cell monolayers, 2 to 3 weeks old, and having a TEER value of approximately 500 Ωcm^2, were first incubated with Dulbecco's MEM containing 1% of FBS for 30 min at 37° C. Subsequently, the incubation medium was removed, and the ^125I-BBI (10 μg/ml) conjugates in 1.5 ml of the medium was added to the apical chamber of the transwells. To the basal chamber, 2.5 ml of the medium was added and the transwells were incubated at 37° C. At predetermined times, the entire basal chamber medium (2.5 ml) from each transwell was removed and counted for radioactivity using a gamma counter. In each experiment, typically seven samples were taken at 1, 2, 3, 4, 5, 6 and 24 hr post-incubation. After the 24 hr samples were taken, the cell monolayers were rinsed three times with ice-cold PBS, cut out of the inserts, and counted for accumulated radioactivity using a gamma counter.\nThe integrity of the ^125I-BBI conjugates transported across the monolayers was studied using Sephadex G50 gel-filtration chromatography. Briefly, after the basal medium was sampled at 24 hr, 1.0 ml of the medium was centrifuged at 2000 rpm and then eluted from a G50 column (10 ml) using PBS; 1 ml fractions were collected and the fraction-associated radioactivity was determined using a gamma counter. Intact conjugates eluted at column void volume and fragments smaller than 1 kDa were eluted at or above the column volume.\nIn the transwell experiments, the conjugates were incubated with the apical side of the cells for 1 hr at 37° C. The transwells were then rinsed three times with ice-cold PBS and then reincubated with serum free medium. The release of the conjugates into the apical and the basal medium was chased for 24 hr by counting the entire basal or the apical medium at different times. The total counts obtained at the end of the chase period (transwells+media counts were added, and the release of the conjugates (% of total) at different times was calculated. To ensure that the counts obtained in the transwells at 24 hr were due to the presence of the conjugates in the cells and not non-specific binding to the plastic, the transwells were exposed to trypsin for 10 min, rinsed three times with ice-cold pbs, and subsequently counted for accumulated radioactivity.\nBBI was modified with 2 or 4 palmitic acids, and the transport was determined in transwells. The cumulative transport of BBI, BBI modified with 4 palmitic acids, and BBI modified with 2 palmitic acids in Caco-2 monolayers were determined as BBI (ng/monolayer) ± SEM, n=3. The order of the transport extent was BBIssPal(4)>BBI>BBIssPal(2). The results of the internalization of the conjugates into the same cells were determined as the ng of BBI internalized per monolayer. […] The basal media obtained at 24 hr from the transwells was analyzed using a G50 column. […] However, a small, but significant, amount of the basal media of BBIssPal(2) consisted of intact conjugate. This quantity consisted of between about 10 and about 20% of the total radioactivity present in the basal medium."}}, "data": [{"molecule": "BBI: hydrophilic protein which has low uptake into cells and is not orally bioavailable; used for chemoprevention (protein, UniProt P01055 40-110, looked up) Bowman-Birk type proteinase …: DDESSKPCCDQCACTKSNPPQCRCSDMRLNSCHSACKSCICALSYPAQCFCVDITDFCYEPCKPSEDDKEN", "values": [{"measurement": "oral bioavailability", "setting": "[1]", "result": "not orally bioavailable"}, {"measurement": "stability in the GI tract", "setting": "[1]; mammalian proteases in the gut, Yavelow et al. 1983", "result": "stable in the GI tract"}, {"measurement": "Uptake (ng BBI/mg of cell protein)/hr", "setting": "[2]; 1% FBS, 10 μg/ml, 60 min, 37° C., ± SEM, three monolayers", "result": "2.2 ± 0.17 (ng BBI/mg of cell protein)/hr"}, {"measurement": "Uptake (ng BBI/mg of cell protein)/hr", "setting": "[2]; 10% FBS, 10 μg/ml, 60 min, 37° C., ± SEM, three monolayers", "result": "1.3 ± 0.02 (ng BBI/mg of cell protein)/hr"}, {"measurement": "Uptake (ng BBI/mg of cell protein)/hr", "setting": "[2]; BSA/FA: fatty acid-loaded BSA 0.1% (3-molar excess of palmitic acid)", "result": "3.9 ± 0.00 (ng BBI/mg of cell protein)/hr"}, {"measurement": "Uptake (ng BBI/mg of cell protein)/hr", "setting": "[2]; BSA: fatty acid-free BSA 0.1%", "result": "4.8 ± 0.00 (ng BBI/mg of cell protein)/hr"}, {"measurement": "Uptake (ng BBI/mg of cell protein)/hr", "setting": "[2]; DTT-treated (50 mM, 5 min 60° C. and 25 min 37° C.), serum-free medium", "result": "5.2 ± 0.00 (ng BBI/mg of cell protein)/hr"}, {"measurement": "Uptake (ng BBI/mg of cell protein)/hr", "setting": "[2]; Untreated, serum-free medium", "result": "4.8 ± 0.00 (ng BBI/mg of cell protein)/hr"}, {"measurement": "effect of defatted-BSA on uptake", "setting": "[2]; defatted-BSA 0.1% in medium", "result": "not affected"}, {"measurement": "effect of fatty acid-loaded BSA on uptake", "setting": "[2]; fatty acid-loaded BSA 0.1%", "result": "again not affected"}, {"measurement": "Uptake (ng BBI/mg of cell protein)/hr", "setting": "[2]; serum free (BSA-free) Dulbecco medium", "result": "4.8 ± 0.00 (ng BBI/mg of cell protein)/hr"}, {"measurement": "Uptake (ng BBI/mg of cell protein)/hr", "setting": "[2]; serum free, 10 μg/ml, 60 min, 37° C., ± SEM, three monolayers", "result": "3.9 ± 0.19 (ng BBI/mg of cell protein)/hr"}, {"measurement": "effect of exposure to DTT on uptake", "setting": "[2]; serum-free medium", "result": "did not cause a reduction in the uptake"}, {"measurement": "Plating Efficiency (%)", "setting": "C3H 10T1/2 cells", "result": "24 ± 2.0", "unit": "%"}, {"measurement": "kidney accumulation", "setting": "[3]; 3 mg/kg", "result": "rapidly accumulated in the kidneys"}, {"measurement": "blood level and removal from circulation", "setting": "[3]; 3 mg/kg, 0.5, 3 and 24 hr", "result": "rapidly excreted from the body without attaining high blood levels"}, {"measurement": "absorption into the mouse skins", "setting": "[4]", "result": 0.14, "unit": "μg/cm^2"}, {"measurement": "order of the transport extent (cumulative transport)", "setting": "Caco-2 monolayers; Caco-2 transwells, n=3", "result": "BBIssPal(4)>BBI>BBIssPal(2)"}, {"measurement": "transcytosis across the monolayers (G50 analysis of basal media)", "setting": "Caco-2 monolayers; basal media at 24 hr", "result": "neither BBI nor BBIssPal(4) was transcytosed"}]}]}
